# Results from publication PMC12835413, “Allosteric zinc inhibition and interdomain regulation govern the catalytic mechanism of the E3-independent ubiquitin-conjugating enzyme hUBE2O” (The Journal of Biological Chemistry, 2025).
# Target: the molecule itself
# Assay: SEC-MALS; 100 ul of 2 mg/ml purified Flag-UBE2O-TwinStrep on Superdex 200 Increase 5/150 GL; 50 mM Tris-HCl pH 7.4, 200 mM NaCl, 0.5 mM TCEP
protein,measurement,value
"Flag-UBE2O-TwinStrep (purified recombinant Homo sapiens UBE2O) (enzyme, human, UniProt Q9C0C9 1-1292, looked up, Homo sapiens UBE2O (ubiquitin-conjugating enzyme E2O), UniProt Q9C0C9, from plasmid pLV-Flag-hUBE2O-TS; also called hUBE2O; Flag-hUBE2O-TwinStrep; source: Expi293F cells, purified; not shown: Flag, N-terminal, kept) MADPAAPTPAAPAPAQAPAPAPEAVPAPAAAPVPAPAPASDSASGPSSDSGPEAGSQRLLFSHDLVSGRYRGSVHFGLVRLIHGEDSDSEGEEEGRGSSGCSEAGGAGHEEGRASPLRRGYVRVQWYPEGVKQHVKETKLKLEDRSVVPRDVVRHMRSTDSQCGTVIDVNIDCAVKLIGTNCIIYPVNSKDLQHIWPFMYGDYIAYDCWLGKVYDLKNQIILKLSNGARCSMNTEDGAKLYDVCPHVSDSGLFFDDSYGFYPGQVLIGPAKIFSSVQWLSGVKPVLSTKSKFRVVVEEVQVVELKVTWITKSFCPGGTDSVSPPPSVITQENLGRVKRLGCFDHAQRQLGERCLYVFPAKVEPAKIAWECPEKNCAQGEGSMAKKVKRLLKKQVVRIMSCSPDTQCSRDHSMEDPDKKGESKTKSEAESASPEETPDGSASPVEMQDEGAEEPHEAGEQLPPFLLKEGRDDRLHSAEQDADDEAADDTDDTSSVTSSASSTTSSQSGSGTSRKKSIPLSIKNLKRKHKRKKNKITRDFKPGDRVAVEVVTTMTSADVMWQDGSVECNIRSNDLFPVHHLDNNEFCPGDFVVDKRVQSCPDPAVYGVVQSGDHIGRTCMVKWFKLRPSGDDVELIGEEEDVSVYDIADHPDFRFRTTDIVIRIGNTEDGAPHKEDEPSVGQVARVDVSSKVEVVWADNSKTIILPQHLYNIESEIEESDYDSVEGSTSGASSDEWEDDSDSWETDNGLVEDEHPKIEEPPIPPLEQPVAPEDKGVVISEEAATAAVQGAVAMAAPMAGLMEKAGKDGPPKSFRELKEAIKILESLKNMTVEQLLTGSPTSPTVEPEKPTREKKFLDDIKKLQENLKKTLDNVAIVEEEKMEAVPDVERKEDKPEGQSPVKAEWPSETPVLCQQCGGKPGVTFTSAKGEVFSVLEFAPSNHSFKKIEFQPPEAKKFFSTVRKEMALLATSLPEGIMVKTFEDRMDLFSALIKGPTRTPYEDGLYLFDIQLPNIYPAVPPHFCYLSQCSGRLNPNLYDNGKVCVSLLGTWIGKGTERWTSKSSLLQVLISIQGLILVNEPYYNEAGFDSDRGLQEGYENSRCYNEMALIRVVQSMTQLVRRPPEVFEQEIRQHFSTGGWRLVNRIESWLETHALLEKAQALPNGVPKASSSPEPPAVAELSDSGQQEPEDGGPAPGEASQGSDSEGGAQGLASASRDHTDQTSETAPDASVPPSVKPKKRRKSYRSFLPEKSGYPDIGFPLFPLSKGFIKSIRGVLTQFRAALLEAGMPECTEDK",stoichiometry N,2
